{"source": "paper PMC8068667", "about": "(Nature, 2021)", "binders": {"B1": {"name": "MDB1 Fab (LILRB1 D3D4-containing antibody Fab) (Fab, V domains shown)", "VH": "QITLKESGPTLVERTQTLTLTCTFSGFSLTTDGLGVGWIRQPPGKALEWLALIYYDDVRRYRPSLKSRLTITKDTSKNRVVLTVTDMDPVDAGTYFCVHASLFNLGSRNVYFRYWGQGTLVSVSS", "VL": "SYDLTQPPSVSVSPGQTARITCSGDSLARQFASWYQQKPGQSPVLLIYKNIERLSAIPERFSGSTSGTSVTLTISGVQAEDEADYFCQSADDSGSYSLFGTGTRVSVL"}}, "molecular_target": "RIFIN PF3D7_1373400 V2 domain, soluble recombinant (P. falciparum 3D7, UniProt C0H5N9)", "assay": "cryo-EM structure"}
{"binder": "B1", "values": [{"measurement": "binding result", "value": "binds"}]}
